In article PMC7954794, “Protein context shapes the specificity of SH3 domain-mediated interactions in vivo” (Nature Communications, 2021):

B1: Pex13 (protein, UniProt P80667 1-386, looked up)
Peroxisomal membrane protein …: MSSTAVPRPKPWETSASLEEPQRNAQSLSAMMTSNQQDSRPTEESNNSNSASESAPEVLPRPAALNSSGTYGESNTIPGIYGNSNYGIPYDNNPYSMNSIYGNSIGRYGYGGSYYGNNYGSFYGGGYGAGAGYGMNNGSGLGESTKATFQLIESLIGAVTGFAQMLESTYMATHNSFFTMISVAEQFGNLKEMLGSFFGIFAIMKFLKKILYRATKGRLGIPPKNFAESEGSKNKLIEDFQKFNDSGTINSNEKATRRKISWKPLLFFLMAVFGFPYLLNKFITKLQTSGTIRASQGNGSEPIDPSKLEFARALYDFVPENPEMEVALKKGDLMAILSKKDPLGRDSDWWKVRTKNGNIGYIPYNYIEIIKRRKKIEHVDDETRTH
B2: Sdc25 (protein, UniProt P0CF34 1-1048, looked up)
Putative truncated guanine …: MPITSSPDLFYLNDCDVVYWYDLTRLVCHYVNLTERDLLANEREKFLTSLDLLTAQITYVYMLFRNLRLVEDSFKKTLKKLIYTLSRFSINANIWFHSTLFEEREAIASQKDPERRSPLLQSILGTFQKFHFLLRLLHFLSNPNELTILPQLTPRFFKDSFNTISWNNPFLRKRLNQHMSHDLPRQMIKAVAGASGIVAENIDEIPASKQGTSCSSETSHHSPSAPFQRRRRGTIFSNVSGSSDESDTIWSKRKKPYPLNEETLSLVRARKKQLDGKLKQMIKSANEYLSNTANFSKMLNFEMNFKTYEEVSGTIPIIDILENLDLTIFLNLRELGDENRVFDEDVAIDDEDEEFLKHSLSSLSYILSDYFNMKQYFHDVVVKFIIVAQHLTLEDPFVFSPMQNDLPTGYYEPMKPSSLNLDNAKDKKNGSQNTDIQEEEDEYEPDPDSLILFHNLINQDSDFNDLKFFNLAHVFKKSCDDYFDVLKLAIEFVNQLILERENLLNYAARMMKNNITELLLRGEEGYGSYDGGETAEKSDTNAVYADSDTKDNDEWRDSQVKLPRYLQREYDSELIWGSNNRIKGGSKHALISYLTDNEKKDLFFDITFLITFRSIFTTTEFLSYLISQYNLDPPEDLCFEEYNEWVTKKLIPVKCRVVEIMTTFFKQYWFLGYDEPDLATLNLDYFAQVAIKENITGSVELLKEVNQKFKHGNIQEATAPMKTLDQQICQDHYSGTLYSTTESILAVDPVLFATQLTILEHEIYCEITIFDCLQKIWKNKYTKSYGASPGLNEFISFANKLTNFISYSVVKEADKSKRAKLLSHFIFIAEYCRKFNNFSSMTAIISALYSSPIYRLEKTWQAVIPQTRDLLQSLNKLMDPKKNFINYRNELKSLHSAPCVPFFGVYLSDLTFTDSGNPDYLVLEHGLKGVHDEKKYINFNKRSRLVDILQEIIYFKKTHYDFTKDRTVIECISNSLENIPHIEKQYQLSLIIEPKPRKKVVPNSNSNNKSQEKSRDDQTDEGKTSTKKDRFPKFQLHKTKKKAPKVSK
B3: Pin3 (protein, UniProt Q06449 2-215, looked up)
[PSI+] inducibility protein 3: SASLINRSLTNIRTELDFLKGSNVISNDVYDQINKSLPAKWDPANAPRNASPASLEYVEALYQFDPQQDGDLGLKPGDKVQLLEKLSPEWYKGSCNGRTGIFPANYVKPAFSGSNGPSNLPPPPQYKAQELQQIPTQNSAASSYQQQPFPPPSTNYYQQPQQQPQQAPPPQQQQQQQQHQSSHSHLKSFGSKLGNAAIFGAGASIGSDIVNNIF
B4: Lsb3 (protein)
chain: MGINNPIPRSLKSETKKAAKILASFVKPNQVFGADQVIPPDVLKRAKGLAIITILKAGFLFSGRAGSGVIVARLKDGTWSAPSAIAMAGAGAGGMVGIELTDFVFILNTQDAVKSFSEFGTITLGGNVSVSAGPLGRSAEAAASASAGGVAAVFAYSKSKGLFAGVSVEGSAIIERREANRKFYGDNCTAKMILSGRIRPPPAVDPLFRVLESRAFNYRPSNGGRGSFDDDEDDYYDDDDYYNDIPSSFSSTDASSTRPNTRSTRRRAQSGSRYTFDDDDDDDDYGTGYSRNSRLAPTNSGGSGGKLDDPSGASSYYASHRRSGTAQSRARSSRNRWADDEYDDYDDDYESGYRRGNGRDRTKDREVDDLSNRFSKSRISSASTPQTSQGRFTAPTSPSTSSPKAVALYSFAGEESGDLPFRKGDVITILKKSDSQNDWWTGRVNGREGIFPANYVELV
modifications: left off: DHFR F[3], C-terminal, kept
B5: Sho1 (protein, UniProt P40073 1-367, looked up)
High osmolarity signaling …: MSISSKIRPTPRKPSRMATDHSFKMKKFYADPFAISSISLAIVSWVIAIGGSISSASTNESFPRFTWWGIVYQFLIICSLMLFYCFDLVDHYRIFITTSIAVAFVYNTNSATNLVYADGPKKAAASAGVILLSIINLIWILYYGGDNASPTNRWIDSFSIKGIRPSPLENSLHRARRRGNRNTTPYQNNVYNDAIRDSGYATQFDGYPQQQPSHTNYVSSTALAGFENTQPNTSEAVNLHLNTLQQRINSASNAKETNDNSNNQTNTNIGNTFDTDFSNGNTETTMGDTLGLYSDIGDDNFIYKAKALYPYDADDDDAYEISFEQNEILQVSDIEGRWWKARRANGETGIIPSNYVQLIDGPEEMHR
B6: Myo5 (protein, UniProt Q04439 1-1219, looked up)
Myosin-5: MAILKRGARKKVHQEPAKRSANIKKATFDSSKKKEVGVSDLTLLSKISDEAINENLKKRFLNATIYTYIGHVLISVNPFRDLGIYTDAVMNEYKGKNRLEVPPHVFAIAESMYYNMKSYNENQCVIISGESGAGKTEAAKRIMQYIAAASSTHTESIGKIKDMVLATNPLLESFGCAKTLRNNNSSRHGKYLEIKFNNQFEPCAGNITNYLLEKQRVVSQIKNERNFHIFYQFTKGASDAYRQTFGVQKPEQYVYTAAAGCISAETIDDLQDYQETLKAMRVIGLGQEEQDQIFRMLAAILWIGNVSFIENEEGNAQVRDTSVTDFVAYLLQIDSQLLIKSLVERIMETNHGMKRGSVYHVPLNIVQADAVRDALAKAIYNNLFDWIVSRVNKSLQAFPGAEKSIGILDIYGFEIFEHNSFEQICINYVNEKLQQIFIQLTLKSEQETYEREKIQWTPIKYFDNKVVCDLIEARRPPGIFAAMNDSVATAHADSNAADQAFAQRLNLFTTNPHFDLRSNKFVIKHYAGDVTYDIDGITDKNKDQLQKDLVELIGTTTNTFLATIFPDTVDRESKRRPPTAGDKIIKSANDLVETLSKAQPSYIRTIKPNETKSPNDYDDRQVLHQIKYLGLQENVRIRRAGFAYRQVFEKFVERFYLLSPHCSYAGDYTWQGDTLDAVKYILQDSSIPQQEYQLGVTSVFIKTPETLFALEHMRDRYWHNMAARIQRAWRRFLQRRIDAATKIQRTIRERKEGNKYEKLRDYGTKVLGGRKERRSMSLLGYRAFMGDYLSCNESKSKGAYIKRQVSIKEKVIFSIHGEALHTKFGRSAQRLKKTFLLTPTTLYIVGQTLVQNAMTYTQDYKIDVRNIQAVSLTNLQDDWVAIKLASSGQPDPLINTYFKTELITHLKRLNDKIQIKIGSAIEYQKKPGKLHSVKCQINESAPKYGDIYKSSTISVRRGNPPNSQVHKKPRKKSSISSGYHASSSQATRRPVSIAAAQHVPTAPASRHSKKPAPPPPGMQNKAATRRSVPNPASTLTASQSNARPSPPTAATRATPAATPAAAAMGSGRQANIPPPPPPPPPSSKPKEPMFEAAYDFPGSGSPSELPLKKGDVIYITREEPSGWSLGKLLDGSKEGWVPTAYMKPHSGNNNIPTPPQNRDVPKPVLNSVQHDNTSANVIPAAAQASLGDGLANALAARANKMRLESDDEEANEDEEEDDW

What follows are molecules tested on Abp1 PPIs (assay: DHFR-PCA of Abp1 SH3-swapped baits (Fig. 2B-D, S2C, S2F)). Settings: number of interactions of Abp1 carrying the named SH3; sheet FigS2A-B.
Format: cell-based, Saccharomyces cerevisiae
Method in brief: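 Yeast DHFR-PCA in which Abp1 baits, carrying their SH3 replaced by CRISPR–Cas9 with one of 27 yeast SH3s or human CTTN, HCLS1 or DBNL SH3s, were mated against 575 SH3-associated DHFR F[3] preys plus 40 negative controls. Four tests were run per PPI. Diploids were selected twice (48 h, 30 °C), then grown 4 days on PCA selection media.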

Molecule | Interactions in Abp1
B1 | 91
B2 | 10
B3 | 99
B4 | 107
B5 | 81
B6 | 100

These molecules were tested on Abp1 (1xFLAG) (assay: Western blot expression level of Abp1 SH3-swapped baits (Fig. S2A-B)). Settings: Flag signal relative to Abp1 WT (Abp1-1 to Abp1-4 = 1); sheet FigS2A-B.
Format: cell-based, Saccharomyces cerevisiae
Design: Flag (2 bands): unit not given here
Description: Precultures of yeast cells expressing baits fused with the DHFR F[1,2]-FLAG were grown overnight at 30 °C with agitation in synthetic complete medium. The next day, cells were expanded in synthetic complete medium to reach their exponential phase (OD600 of around 1.0), pelleted, and frozen at −80 °C. The equivalent of fifty OD600 of cells was resuspended in ice-cold yeast lysis buffer (10 mM Tris-HCl pH 7.4, 150 mM NaCl, 0.5 mM EDTA (Millipore Sigma), 1% Triton X-100 (Millipore Sigma), and one cOmplete Mini Protease Inhibitor Cocktail (Millipore Sigma) per 10 mL) with […] glass beads (Millipore Sigma) and disrupted at 4 °C by 10 cycles of 2 min vortexing and 2 min cooldown. The equivalent of […] of lysed cells was used for the immunoprecipitation of the bait proteins using FLAG-M2 agarose beads (Millipore Sigma). The beads were incubated with the cell lysates for 120 min at 4 °C with a slow rotation, followed by three washes with the yeast lysis buffer.
Protein extracts and affinity-purified baits from yeast and human lysed cells were migrated on 10% polyacrylamide gels. The separated proteins were then transferred to nitrocellulose membranes. Validation of correct protein loading was done with ponceau staining of the membranes. Before the primary antibody incubations, membranes were blocked in 5% milk. Protein signals were detected on an Amersham Imager 600RGB (GE Healthcare) following the incubation of the membranes with the appropriate HRP-conjugated secondary antibodies and the Clarity Western ECL Substrate (Bio-Rad). The antibodies used in this study are M2-HRP (A8592, Sigma, 1/50,000), rabbit anti-FLAG (F7425, Sigma, 1/1000), PAK (SC-881, Santa Cruz, 1/200), p130cas/BCAR1 (SC-860, Santa Cruz, 1/200), actin (Cell Signaling Technology, 1/2000), anti-mouse HRP (Cell Signaling Technology, 1/10,000) and anti-rabbit HRP (Cell Signaling Technology, 1/10,000). The quantification of the WB signals was performed with the Amersham Imager 600 analysis software (GE Healthcare).

Molecule | Ratio Swap/WT Flag
B1 | 0.9802
B2 | 0.3589
B3 | 0.2499
B4 | 0.537
B5 | 0.6541
B6 | 0.7689

Same assay, conditions: Western blot Flag signal (2 bands), Abp1 WT, SH3-deleted or SH3-swapped; sheet FigS2A-B

Molecule | Flag (2 bands)
B1 | 104696
B2 | 83248
B3 | 57952
B4 | 57357
B5 | 151709
B6 | 82124
